Key:
Format in all cases: biochemical
[1] = target: T1, Candida antartica lipase fraction B (CALB) (Moesziomyces antarcticus, UniProt P41365); assay: Relative rates of hydrolysis of N-(alkoxycarbonyl)-trans-4-hydroxy-L-proline methyl esters by CALB; details: for time to complete hydrolysis of the methyl ester / initial reaction rate: 50 mM substrate, 3.0 mg/mL CALB, 25° C.; for time to complete hydrolysis of the methyl ester: 0.100M potassium phosphate pH 7.0; for initial reaction rate: pH 7.0
T1 construct: purchased Boehringer Mannheim CHIRAZYME L-2
T1 sequence (P41365 26-342): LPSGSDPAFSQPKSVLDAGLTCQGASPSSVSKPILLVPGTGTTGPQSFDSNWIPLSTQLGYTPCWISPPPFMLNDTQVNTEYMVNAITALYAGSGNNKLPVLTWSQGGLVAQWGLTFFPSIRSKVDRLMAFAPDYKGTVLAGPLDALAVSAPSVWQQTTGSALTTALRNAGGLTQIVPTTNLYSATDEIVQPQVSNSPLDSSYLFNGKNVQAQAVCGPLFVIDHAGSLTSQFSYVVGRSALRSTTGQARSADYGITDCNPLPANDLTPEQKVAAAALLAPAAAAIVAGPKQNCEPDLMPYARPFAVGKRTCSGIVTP
Procedure: A 2.0 mL aqueous solution containing 50 mM N-(methoxycarbonyl)-trans-4-hydroxy-L-proline methyl ester, or 50 mM N-(ethoxycarbonyl)-trans-4-hydroxy-L-proline methyl ester, or 50 mM N-(tert-butoxycarbonyl)-trans-4-hydroxy-L-proline methyl ester in 0.100M potassium phosphate (pH 7.0) and 3.0 mg/mL of Candida antartica lipase fraction B was mixed at 25° C. The reactions were analyzed by removal of 0.200 mL aliquots at pre-determined times and mixing the sample with an equivalent volume of 0.100M propionic acid (HPLC internal standard) in water, and filtering the resulting solution through a 10K molecular weight cut-off filter to remove the enzyme. The filtrate was then analyzed by high pressure liquid chromatography on a HPX-87H column (Bio-Rad, 30 cm×7.8 mm) to determine the percent conversion of the N-(alkoxycarbonyl)-trans-4-hydroxy-L-proline methyl ester. Complete hydrolysis of the methyl ester of the N-methoxy-, N-ethoxy-, and N-tert-butoxycarbonyl derivatives occurred in 5 h, 2 h, and 6 h, respectively, and the initial reaction rates were 5.7, 18.7, and 3.3 micromoles/h/mg enzyme catalyst, respectively.

[2] = Enzyme screens for resolution of racemic N-(methoxycarbonyl)-4-keto-D,L-proline methyl ester (Example 1); details: 0.100M racemate, 5.0 to 50 mg/mL enzyme, 25° C., optimum; for conv. (percent conversion of the racemate): 0.20M sodium succinate pH 6.0, 5 h or 0.20M sodium acetate pH 5.0, 24 h; for % ee (enantiomeric excess of the D-isomer; L-isomer with porcine liver esterase): pH 6.0, 5 h or pH 5.0, 24 h
Procedure: (§1) An aqueous solution (1.0 mL) containing 0.100M racemic N-(methoxycarbonyl)-4-keto-D,L-proline methyl ester in either 0.20M sodium succinate (pH 6.0) or 0.20M sodium acetate (pH 5.0) was mixed with 5.0 to 50 mg/mL of commercial enzyme preparations (listed in the table below) at 25° C. […] The dichloromethane extract was then analyzed by chiral gas chromatography on a Chiraldex G-TA column (Advanced Separation Technologies, Inc., 50 m×0.32 mm ID) to determine the percent conversion of the racemate, and the enantiomeric excess of the N-(methoxycarbonyl)-4-keto-D-proline methyl ester.

[3] = Enzyme screens for resolution of racemic N-(acetyl)-4-keto-D,L-proline methyl ester (Example 7, comparative); details: 0.100M racemate, 5 h, 5.0 to 30 mg/mL enzyme, 25° C.; for conv. (percent conversion of the racemate): 0.20M sodium succinate pH 6.0; for % ee (enantiomeric excess of the D-isomer): pH 6.0
Procedure: as §1, with “racemic N-(acetyl)-4-keto-D,L-proline” for “racemic N-(methoxycarbonyl)-4-keto-D,L-proline”, “in” for “in either”, “6.0)” for “6.0) or 0.20M sodium acetate (pH 5.0)”, “to 30” for “to 50”, “the N-(acetyl)-4-keto-D-proline” for “the N-(methoxycarbonyl)-4-keto-D-proline”

[4] = Enzyme screens for resolution of racemic N-(methoxycarbonyl)-4,4-dimethoxy-D,L-proline methyl ester (Example 8, comparative); details: 0.100M racemate, 6 h or 17 h, 5.0 to 30 mg/mL enzyme, 25° C.; for conv. (percent conversion of the racemate): 0.25M potassium phosphate pH 7.0; for % ee (enantiomeric excess of the D-isomer): pH 7.0
Procedure: An aqueous solution (1.0 mL) containing 0.100M racemic N-(methoxycarbonyl)-4,4-dimethoxy-D,L-proline methyl ester in 0.25M potassium phosphate (pH 7.0) was mixed with 5.0 to 30 mg/mL of commercial enzyme preparations (listed in the table below) at 25° C. […] The ethyl acetate extract was then analyzed by chiral gas chromatography on a Chiraldex G-TA column (Advanced Separation Technologies, Inc., 50 m×0.32 mm ID) to determine the percent conversion of the racemate, and the enantiomeric excess of N-(methoxycarbonyl)-4,4-dimethoxy-D-prolinemethyl ester.

[5] = Enzyme screens for resolution of diastereomeric mixture CHDP(MEMC)/THLP(MEMC) (Example 9); details: 0.050M each isomer, 5 h or 24 h, 5.0 to 50 mg/mL enzyme, 25° C.; for conv. (percent conversion of the diastereomeric mixture): 0.100M potassium phosphate pH 7.0; for % de (diastereomeric excess of the D-isomer, CHDP(MEMC)): pH 7.0
Procedure: (§2) An aqueous solution (1.0 mL) containing 0.050M N-(methoxycarbonyl)-trans-4-hydroxy-L-proline methyl ester and 0.050M N-(methoxycarbonyl)-cis-4-hydroxy-D-proline methyl ester in 0.100M potassium phosphate (pH 7.0) was mixed with 5.0 to 50 mg/mL of commercial enzyme preparations (listed in the table below) at 25° C. The reactions were analyzed after 5 h or 24 h by removal of a 0.200 mL sample and mixing with an equivalent volume of 0.100M propionic acid (HPLC internal standard) in water. The resulting solution was filtered through a 10K molecular weight cut-off filter to remove the enzyme and the filtrate analyzed by high pressure liquid chromatography on a HPX-87H column (Bio-Rad, 30 cm×7.8 mm) to determine the percent conversion of each isomer of the diastereomeric mixture, and the diastereomeric excess of the N-(methoxycarbonyl)-cis-4-hydroxy-D-proline methyl ester.

[6] = Enzyme screens for resolution of diastereomeric mixture CHLP(MEMC)/THLP(MEMC) (Example 13); details: 0.050M each isomer, 5 h, 5.0 to 50 mg/mL enzyme, 25° C.; for conv. (percent conversion of the diastereomeric mixture): 0.100M potassium phosphate pH 7.0; for % de (diastereomeric excess of the cis-L-isomer): pH 7.0
Procedure: as §2, with “solution” for “solution (1.0 mL)”, “N-(methoxycarbonyl)-cis-4-hydroxy-L-proline” for “N-(methoxycarbonyl)-cis-4-hydroxy-D-proline”, “5” for “5 h or 24”, “of” for “of each isomer of”

## COC(=O)[C@@H]1C[C@@H](O)CN1C(=O)OC(C)(C)C [THLP(MEBOC), N-(tert-butoxycarbonyl)-trans-4-hydroxy-L-proline methyl ester]
[1]
  time to complete hydrolysis of the methyl ester: 6 h
  initial reaction rate: 3.3 micromoles/h/mg enzyme catalyst

## CCOC(=O)N1C[C@H](O)C[C@H]1C(=O)OC [THLP(MEEC), N-(ethoxycarbonyl)-trans-4-hydroxy-L-proline methyl ester]
[1]
  time to complete hydrolysis of the methyl ester: 2 h
  initial reaction rate: 18.7 micromoles/h/mg enzyme catalyst
[1]; CALB
  initial rate of methyl ester hydrolysis, times faster than THLP(MEBOC): ~1.7 times
  initial rate of methyl ester hydrolysis, times faster than THLP(MEEC) as printed: approximately 3.3 times

B1: lipase (Chirazyme L7): commercial enzyme preparation, source porcine pancreas (protein, UniProt P00591 1-450, looked up)
Pancreatic triacylglycerol …: SEVCFPRLGCFSDDAPWAGIVQRPLKILPWSPKDVDTRFLLYTNQNQNNYQELVADPSTITNSNFRMDRKTRFIIHGFIDKGEEDWLSNICKNLFKVESVNCICVDWKGGSRTGYTQASQNIRIVGAEVAYFVEVLKSSLGYSPSNVHVIGHSLGSHAAGEAGRRTNGTIERITGLDPAEPCFQGTPELVRLDPSDAKFVDVIHTDAAPIIPNLGFGMSQTVGHLDFFPNGGKQMPGCQKNILSQIVDIDGIWEGTRDFVACNHLRSYKYYADSILNPDGFAGFPCDSYNVFTANKCFPCPSEGCPQMGHYADRFPGKTNGVSQVFYLNTGDASNFARWRYKVSVTLSGKKVTGHILVSLFGNEGNSRQYEIYKGTLQPDNTHSDEFDSDVEVGDLQKVKFIWYNNNVINPTLPRVGASKITVERNDGKVYDFCSQETVREEVLLTLNPC
[2]
  conv. (percent conversion of the racemate): 0%
  % ee (enantiomeric excess of the D-isomer; L-isomer with porcine liver esterase): 0%
[3]
  conv. (percent conversion of the racemate): 0%
  % ee (enantiomeric excess of the D-isomer): 0%
[4]
  conv. (percent conversion of the racemate): 10%
  % ee (enantiomeric excess of the D-isomer): 0%
[5]
  conv. (percent conversion of the diastereomeric mixture): 0%
  % de (diastereomeric excess of the D-isomer, CHDP(MEMC)): 0%
[6]
  conv. (percent conversion of the diastereomeric mixture): 0%
  % de (diastereomeric excess of the cis-L-isomer): 0%

B2: protease, trypsin bovine pancreas: commercial trypsin, source bovine pancreas (protein, UniProt P00760 24-246, looked up)
Serine protease 1: IVGGYTCGANTVPYQVSLNSGYHFCGGSLINSQWVVSAAHCYKSGIQVRLGEDNINVVEGNEQFISASKSIVHPSYNSNTLNNDIMLIKLKSAASLNSRVASISLPTSCASAGTQCLISGWGNTKSSGTSYPDVLKCLKAPILSDSSCKSAYPGQITSNMFCAGYLEGGKDSCQGDSGGPVVCSGKLQGIVSWGSGCAQKNKPGVYTKVCNYVSWIKQTIASN
[2]
  conv. (percent conversion of the racemate): 0%
  % ee (enantiomeric excess of the D-isomer; L-isomer with porcine liver esterase): 0%
[3]
  conv. (percent conversion of the racemate): 0%
  % ee (enantiomeric excess of the D-isomer): 0%
[4]
  conv. (percent conversion of the racemate): 0%
  % ee (enantiomeric excess of the D-isomer): 0%
[5]
  conv. (percent conversion of the diastereomeric mixture): 0%
  % de (diastereomeric excess of the D-isomer, CHDP(MEMC)): 0%
[6]
  conv. (percent conversion of the diastereomeric mixture): 0%
  % de (diastereomeric excess of the cis-L-isomer): 0%
